The target in one experiment is T1, PD-L1 (human, UniProt Q9NZQ7 19-238, limits assumed).
T1 construct: On Raji cells expressing human PD-L1 in the reporter assay
Briefly: FCM or ELISA, graded. In general terms: An ELISA detects its analyte on a solid surface through an enzyme-linked reagent.

Another experiment concerns the target T2, PD-1 (human, UniProt Q15116 25-167, limits assumed).
T2 construct: On Jurkat T cells expressing human PD-1 in the reporter assay
Briefly: FCM or ELISA, graded.

T2 sequence (Q15116 25-167 limits assumed): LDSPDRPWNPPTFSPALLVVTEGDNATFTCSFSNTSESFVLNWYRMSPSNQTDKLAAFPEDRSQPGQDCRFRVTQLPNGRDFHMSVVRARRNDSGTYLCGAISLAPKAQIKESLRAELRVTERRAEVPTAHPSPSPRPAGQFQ
T1 sequence (Q9NZQ7 19-238 limits assumed): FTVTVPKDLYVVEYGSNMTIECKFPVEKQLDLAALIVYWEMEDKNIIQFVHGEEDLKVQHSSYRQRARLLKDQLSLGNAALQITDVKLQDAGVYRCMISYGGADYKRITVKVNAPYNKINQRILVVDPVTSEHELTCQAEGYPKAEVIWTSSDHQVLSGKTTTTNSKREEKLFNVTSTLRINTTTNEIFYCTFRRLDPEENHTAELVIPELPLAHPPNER

B1: Ly2846 (multi-specific antibody)
chain 1: QVQLVQSGAEVKKPGASVKVSCKASGYTFTSYVMHWVRQKPGQGLEWIGYINPYNEGTESTDKFKGRATMTSDKSTSTVYMELSSLRSEDTAVYYCASIYYGYEGTYFGVWGQGTLVTVSSASTKGPSVFPLAPSSKSTSGGTAALGCLVKDYFPEPVTVSWNSGALTSGVHTFPAVLQSSGLYSLSSVVTVPSSSLGTQTYICNVNHKPSNTKVDKKVEPKSCGGGGSGGGGSGGGGSGGGGSEVQLVESGGGLVQPGGSLRLSCAASGFTFSTYAMNWVRQAPGKGLEWVGRIRSKYNNYATYYADSVKGRFTISRDDSKNSLYLQMNSLKTEDTAVYYCVRHGNFGNSYVSWFAYWGQGTLVTVSSGGGGSDKTHTCPPCPAPELLGPSVFLFPPKPKDTLMISRTPEVTCVVVDVSHEDPEVKFNWYVDGVEVHNAKTKPREEQYNSTYRVVSVLTVLHQDWLNGKEYKCKVSNKALGAPIEKTISKAKGQPREPQVYTLPPSREEMTKNQVSLWCLVKGFYPSDIAVEWESNGQPENNYKTTPPVLDSDGSFFLYSKLTVDKSRWQQGNVFSCSVMHEALHNHYTQKSLSLSPGKGGGGSGGGGSGGGGSGGGGSQVQLVQSGAEVKKPGASVKVSCKASGYTFTDFWMSWVRQAPGQGLEWMGQIYPNTGTTHSNEKFKGRVTMTRDTSTSTVYMELSSLRSEDTAVYYCARSYHISTTPNWFAYWGQGTLVTVSS
chain 2: QVQLVQSGAEVKKPGASVKVSCKASGYTFTSYVMHWVRQKPGQGLEWIGYINPYNEGTESTDKFKGRATMTSDKSTSTVYMELSSLRSEDTAVYYCASIYYGYEGTYFGVWGQGTLVTVSSASTKGPSVFPLAPSSKSTSGGTAALGCLVKDYFPEPVTVSWNSGALTSGVHTFPAVLQSSGLYSLSSVVTVPSSSLGTQTYICNVNHKPSNTKVDKKVEPKSCGGGGSGGGGSGGGGSGGGGSQAVVTQEPSLTVSPGGTVTLTCRSSTGAVTTSNYANWVQQKPGQAPRGLIGGTNKRAPWTPARFSGSLLGGKAALTITGAQAEDEADYYCALWYSNLWVFGGGTKLTVLGGGGSDKTHTCPPCPAPELLGPSVFLFPPKPKDTLMISRTPEVTCVVVDVSHEDPEVKFNWYVDGVEVHNAKTKPREEQYNSTYRVVSVLTVLHQDWLNGKEYKCKVSNKALGAPIEKTISKAKGQPREPQVYTLPPSREEMTKNQVSLSCAVKGFYPSDIAVEWESNGQPENNYKTTPPVLDSDGSFFLVSKLTVDKSRWQQGNVFSCSVMHEALHNRFTQKSLSLSPGKGGGGSGGGGSGGGGSGGGGSDIQMTQSPSSLSASVGDRVTITCKASQNVYKKLEWYQQKPGKVPKVLIYHTNILQTGVPSRFSGSGSGTDYTLTISSLQPEDVATYYCYQWNSGPTFGGGTKVEIK
chain 3: EIVLTQSPATLSLSPGERATLSCRASSSVSYMHWYQQKPGQAPRPWIYATSNLASGIPARFSGSRSGTDYTLTISSLEPEDFAVYYCQQWSSNTLTFGGGTKVEIKRTVAAPSVFIFPPSDEQLKSGTASVVCLLNNFYPREAKVQWKVDNALQSGNSQESVTEQDSKDSTYSLSSTLTLSKADYEKHKVYACEVTHQGLSSPVTKSFNRGEC
notes: anti-B7H3/CD3/PD-L1
Consider B1, for which the binding result with PD-L1 is given as “binds”.

B2: Ly2904 (multi-specific antibody)
chain 1: QVQLVQSGAEVKKPGASVKVSCKASGYTFTSYVMHWVRQKPGQGLEWIGYINPYNEGTESTDKFKGRATMTSDKSTSTVYMELSSLRSEDTAVYYCASIYYGYEGTYFGVWGQGTLVTVSSASTKGPSVFPLAPSSKSTSGGTAALGCLVKDYFPEPVTVSWNSGALTSGVHTFPAVLQSSGLYSLSSVVTVPSSSLGTQTYICNVNHKPSNTKVDKKVEPKSCGGGGSGGGGSGGGGSGGGGSEVQLVESGGGLVQPGGSLRLSCAASGFTFSTYAMNWVRQAPGKGLEWVGRIRSKYNNYATYYADSVKGRFTISRDDSKNSLYLQMNSLKTEDTAVYYCVRHGNFGNSYVSWFAYWGQGTLVTVSSGGGGSDKTHTCPPCPAPELLGPSVFLFPPKPKDTLMISRTPEVTCVVVDVSHEDPEVKFNWYVDGVEVHNAKTKPREEQYNSTYRVVSVLTVLHQDWLNGKEYKCKVSNKALGAPIEKTISKAKGQPREPQVYTLPPSREEMTKNQVSLWCLVKGFYPSDIAVEWESNGQPENNYKTTPPVLDSDGSFFLYSKLTVDKSRWQQGNVFSCSVMHEALHNHYTQKSLSLSPGKGGGGSGGGGSGGGGSGGGGSQVTLKESGPALVKPTQTLTLTCTFSGFSLSTSGTCVSWIRQPPGKALEWLATICWEDSKGYNPSLKSRLTISKDTSKNQAVLTMTNMDPVDTATYYCARREDSGYFWFPYWGQGTLVTVSS
chain 2: QVQLVQSGAEVKKPGASVKVSCKASGYTFTSYVMHWVRQKPGQGLEWIGYINPYNEGTESTDKFKGRATMTSDKSTSTVYMELSSLRSEDTAVYYCASIYYGYEGTYFGVWGQGTLVTVSSASTKGPSVFPLAPSSKSTSGGTAALGCLVKDYFPEPVTVSWNSGALTSGVHTFPAVLQSSGLYSLSSVVTVPSSSLGTQTYICNVNHKPSNTKVDKKVEPKSCGGGGSGGGGSGGGGSGGGGSQAVVTQEPSLTVSPGGTVTLTCRSSTGAVTTSNYANWVQQKPGQAPRGLIGGTNKRAPWTPARFSGSLLGGKAALTITGAQAEDEADYYCALWYSNLWVFGGGTKLTVLGGGGSDKTHTCPPCPAPELLGPSVFLFPPKPKDTLMISRTPEVTCVVVDVSHEDPEVKFNWYVDGVEVHNAKTKPREEQYNSTYRVVSVLTVLHQDWLNGKEYKCKVSNKALGAPIEKTISKAKGQPREPQVYTLPPSREEMTKNQVSLSCAVKGFYPSDIAVEWESNGQPENNYKTTPPVLDSDGSFFLVSKLTVDKSRWQQGNVFSCSVMHEALHNRFTQKSLSLSPGKGGGGSGGGGSGGGGSGGGGSNIQMTQSPSSLSASVGDRVTITCKAGQNVNNYLAWYQQKPGKAPKVLIFNANSLQTGVPSRFSGSGSGTDFTLTISSLQPEDFATYYCQQYNSWPTFGGGTKVEIK
chain 3: B1 chain 3
notes: anti-B7H3/CD3/PD-1
On to B2, for which the binding result with PD-1 is given as “binds”.

The values are drawn from EP4803150A2 (Lyvgen Biopharma Holdings Limited, dated 2026).
